Data on three substances can be found in PMC5072174.

The assay deals with fluorescein-conjugated N-terminal histone H3 peptide with trimethylation at the K9 position (UniProt P68431). Put plainly: fluorescence polarisation.
As to “Mpp8 chromodomain with F59 replaced by 3,4,5-trifluorophenylalanine (from UniProt Q99549 55-116) (domain or fragment)”, the Kd is above 100 µM. For “Mpp8 chromodomain with F59 replaced by 3,5-difluorophenylalanine (from UniProt Q99549 55-116) (domain or fragment)” the value was 12 µM; for “Mpp8 chromodomain with F59 replaced by pentafluoro-phenylalanine (from UniProt Q99549 55-116) (domain or fragment)”, above 200 µM.
